Target: T1, Flag-tagged mouse STAT3 (pXJ40-Flag-mSTAT3) (mouse, UniProt P42227 1-770, limits assumed, phosphorylated after leptin treatment (phospho-STAT3); the site is not given)
T1 construct: also called phospho-STAT3; Flag-tagged STAT3; not shown: Flag tag
Assay: coimmunoprecipitation

T1 sequence (P42227 whole entry): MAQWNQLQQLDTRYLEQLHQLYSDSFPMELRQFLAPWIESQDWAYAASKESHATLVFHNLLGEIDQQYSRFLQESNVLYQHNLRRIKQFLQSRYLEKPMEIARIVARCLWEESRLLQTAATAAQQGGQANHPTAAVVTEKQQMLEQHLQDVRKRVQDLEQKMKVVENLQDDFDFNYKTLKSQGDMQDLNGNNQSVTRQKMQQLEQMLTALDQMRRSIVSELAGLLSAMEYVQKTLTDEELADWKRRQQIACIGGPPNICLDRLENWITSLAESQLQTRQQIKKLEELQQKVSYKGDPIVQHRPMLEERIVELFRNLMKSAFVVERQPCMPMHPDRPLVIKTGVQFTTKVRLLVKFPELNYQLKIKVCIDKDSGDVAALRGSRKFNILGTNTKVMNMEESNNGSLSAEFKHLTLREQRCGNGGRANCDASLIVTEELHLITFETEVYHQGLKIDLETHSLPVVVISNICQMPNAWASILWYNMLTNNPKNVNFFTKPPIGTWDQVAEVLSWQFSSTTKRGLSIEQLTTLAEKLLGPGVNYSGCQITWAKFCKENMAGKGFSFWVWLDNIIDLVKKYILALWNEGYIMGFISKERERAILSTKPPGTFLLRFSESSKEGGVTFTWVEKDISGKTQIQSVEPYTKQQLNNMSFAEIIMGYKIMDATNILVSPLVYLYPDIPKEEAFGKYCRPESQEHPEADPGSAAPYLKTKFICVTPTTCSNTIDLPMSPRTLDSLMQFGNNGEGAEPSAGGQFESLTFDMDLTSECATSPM

| binding result | Binder |
| --- | --- |
| no binding | FoxO1^(1-123)-(168-652) (other, UniProt Q9R1E0 1-123, looked up) MAEAPQVVETDPDFEPLPRQRSCTWPLPRPEFNQSNSTTSSPAPSGGAAANPDAAASLASASAVSTDFMSNLSLLEESEDFARAPGCVAVAAAAAASRGLCGDFQGPEAGCVHPAPPQPPPTGKAIESSAEKRLTLSQIYEWMVKSVPYFKDKGDSNSSAGWKNSIRHNLSLHSKFIRVQNEGTGKSSWWMLNPEGGKSGKSPRRRAASMDNNSKFAKSRGRAAKKKASLQSGQEGPGDSPGSQFSKWPASPGSHSNDDFDNWSTFRPRTSSNASTISGRLSPIMTEQDDLGDGDVHSLVYPPSAAKMASTLPSLSEISNPENMENLLDNLNLLSSPTSLTVSTQSSPGSMMQQTPCYSFAPPNTSLNSPSPNYSKYTYGQSSMSPLPQMPMQTLQDSKSSYGGLNQYNCAPGLLKELLTSDSPPHNDIMSPVDPGVAQPNSRVLGQNVMMGPNSVMPAYGSQASHNKMMNPSSHTHPGHAQQTASVNGRTLPHVVNTMPHTSAMNRLTPVKTPLQVPLSHPMQMSALGSYSSVSSCNGYGRMGVLHQEKLPSDLDGMFIERLDCDMESIIRNDLMDGDTLDFNFDNVLPNQSFPHSVKTTTHSWVSG |
| no binding | FoxO1^(1-123) (other) MAEAPQVVETDPDFEPLPRQRSCTWPLPRPEFNQSNSTTSSPAPSGGAAANPDAAASLASASAVSTDFMSNLSLLEESEDFARAPGCVAVAAAAAASRGLCGDFQGPEAGCVHPAPPQPPPTG |
